Assay: yeast display, Sf9 membrane polyspecificity reagent, FACS + sequencing; frameworks hold sequencing errors
Outline: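 Nanobodies from a synthetic yeast display library (Saccharomyces cerevisiae BJ5465), induced 36–48 hours with galactose, were stained 1 hour at 4 °C with 10% biotinylated, detergent-solubilized Sf9 membrane reagent, enriched on streptavidin microbeads, then FACS-sorted. Anti-HA (expression) and streptavidin (reagent binding) fluorescence set low and high (top ~1%) gates. Polyreactivity labels come from the gate of origin. Genes were colony-PCR amplified, MiSeq 2 × 250 sequenced and filtered by CDR length.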

## QVQLVESGGGLVQAGGSLRLSCAASGSTFISYAMGWYRQAPGKERELVAAISSGGGRTSYADSVKGRFTISRDNAKNTVYLQMNSLKPEDTAVYYCNTKKLPYAEGYWGQGTQVTVSS
  polyreactivity (PSR sort gate): low polyreactivity

## QDQLVESGGGLVQAGGSLRLSCAACGIMFGKYAMGWYREAPGKERELVAAITWSGGRTYYADSVTGRFTISRANAKNTVYLPMNSLKPEDTAVYYCAADVKYGYDWGQGTQVTVSS
  polyreactivity (PSR sort gate): high polyreactivity

## QVQLVESGGGLVQAGGSLRLTCAASGSTFDLNAMGWYRQSPGKERELVARISSVGSTNYADSVKGRFTISRDNAKNSVYLQMNSLKPEDTAVYYCNAGFWDLYDYWGQGTQVTVSS
  polyreactivity (PSR sort gate): low polyreactivity

## QVQLVESGGGLVQAGGSLRLSCAASGSIFTPYAMGWYRQAPGKERELVATISWSGGRTYYADSVKGRFTISRDNAMYTVYLQMYSLKPEDTAVYYCAARGYSSEYDYWGQGTQVTVSS
  polyreactivity (PSR sort gate): high polyreactivity

## QVQLVDSGGGVVQAGLSLRLSCAASGRTFPGYAIGWYRQAPGKEMELVASITSRGGITYYADSVKGRFTISRDNAKITVYLQLNSLKPEDSAVYYCATDFAVTKMEYWGQGSQVTVSS
  polyreactivity (PSR sort gate): low polyreactivity

## QVQRVESGGGLVQAGGSLRLSCAASGRIFGYNAMGWSRPAPGKERELVASISRDGDRTYYADSVKGRVTISRDNAKNTVYLQMNSLKPEDTAVDYCATRQYRYGYLYDYWAQGTQVTVSS
  polyreactivity (PSR sort gate): high polyreactivity

## QVQLVESGGGLVQAGGSLRLSCAASGRIFYRNAMGWSRQAPGKERELVASITSAGRTYYADSVKGRFTISRDNAKNTVYLQMNSLKPEDTAVYYCAVRVAVLLNLYGYWGQGTQVTVSS
  polyreactivity (PSR sort gate): low polyreactivity

## QVQLVESGGGLVQAGGSLRLSCASSGNIFVAYAMGWYRQAPGKERELVAAITSGGRTYADSVKGRFTISRDNAKNTVYLQMNSLKPEDTAVYYCNADPYYVYLGYYDRYYSGYGYWGQGTQVTVSS
  polyreactivity (PSR sort gate): low polyreactivity

## QVQLVESAGGLVQAGGSLRLSCAASGSTFVGYAMGWYRQAPGKERELVAAISGSGTSTYYADSVKGRFTISRDNAKNTVYLQMNSLKPEDTAVYYCNADPIFVYSSYNYWGQGTQVTVSS
  polyreactivity (PSR sort gate): low polyreactivity

## QVQLVESGGGLVQAGGSLRLSCAASGFTFRYYAMGWYRQAPGKEREFVAAIRRSGANTYYADSVKGRFTISRDNAKNTVYLQMNSLKPEDTAVYYCGTRLRGSGRLYNYWGQGTQVTVSS
  polyreactivity (PSR sort gate): high polyreactivity

## QVQLVESGGGLVQAGGSLRLSCAASGSTFTVYAMGWYRQAPGKERELVAGISSGGSTYYADSVKGRFTISRDNAKNTVYLQMNSLKPEDTAVYYCAALRVRVPLGTYGYWGQVTQVTVSS
  polyreactivity (PSR sort gate): high polyreactivity

## QVQLVDSGGGLVQAGGNLRLSCAPSGYTFGKYAMGWYRQAPGKERELVAGISSRGGSTYYADSVKGRFTISRDNAKNTVYFQMNSLKPEDTAVYYCAAVAYTGGPRKLGFYYWGQGTQVTVSS
  polyreactivity (PSR sort gate): high polyreactivity

## QVQHVESRGGLVQAGGSLRLSCAASGFTFYTNVMGWSRQAPGKERELVAAINSGGSTNYADSVKGRFTISRDNAKNTVYLQMNSLKAEDTAVYYCNKRGTEIGYDYWGQGTQVTVSS
  polyreactivity (PSR sort gate): low polyreactivity

## QVQLVESGGGLVQAGGSLRLSCAASGIIFPNYAMGWYRQAPGKERELFAAITWRGGGTYYADSVKGRFTISRDNAKNTVYLQMNSLKPEDTAVYYCAAQKAYPRRYYGYKWEYYYWGQGSQVTVSS
  polyreactivity (PSR sort gate): high polyreactivity

## QVQLVESGGGLVQAGGSLRLSCAASGSISGYYAMGWYRQAPGKERELVASIRYTGARTYYADSVKGRFTISRDNAKNTVYLQMNSLKPEDTAVYYGAADVKRDRVWGGDYWGQGTQVTVSS
  polyreactivity (PSR sort gate): low polyreactivity

## QVQLVESGGGLVQAGGSLRLSCAASGSTFRANAMGWYRQAPGKERELVAAISSGDSTNYADSVKGRFTISRDNAKKSVYLQMNSLKPEDTAVYYCAAVYTYYWWGSYGYWGQGTQVTVSS
  polyreactivity (PSR sort gate): low polyreactivity

## QVQLVESGGGLVQAGGSLRLSCAASGFICDYNAMGWYRQAPGKERELVAAISGGGGSTYYADSVKGRFTISRDNAKKTVYLQMNSLKPEDTAVYYCAKRYRGGYWGQGTQVTVSS
  polyreactivity (PSR sort gate): high polyreactivity

## QVQLVESGGGLVQAGGSLRLSCAASGLTLYTYAMGWYREAPGKESELVAAISKNGGRTYYADSVKGRFTISRDNAKNTVYLQMNSLKPEDTAVYYCAARARVGTVTFDFWGQGTQVTVSS
  polyreactivity (PSR sort gate): high polyreactivity

## QVQLVESGGGLVQAGGSLRLSCAASGYIFPDYPMGWYRPATGKERELVAAFTSSGGRTYYADSVKGRFTISRDNAKNTVYLQMNSLKPEDTAVYYCAAVSVLKKTFDYWGQGTQVTVSS
  polyreactivity (PSR sort gate): high polyreactivity

## QVQLVESGGGLVQAGGSLRLSCAASRSIFVPYAMGWYRQAPGKERELVAVITSGGSTYYADSVKGRFTISRDNAKNTVYLQMNSLKPEDTAVYYCNADLYYVWSTLSQFDYWGQGTQVTVSS
  polyreactivity (PSR sort gate): low polyreactivity

## QVQLQESGGGLVQAGGSLRLSCAASGTISPLPAMGWYRQAPGKEREFVAGIDTGAITNYADSVKGRFTISRDNAKITVYLQMNSLKPEDTAVYYCAVFPAAYDYYERYYTYWGQGTQVTVSS
  polyreactivity (PSR sort gate): low polyreactivity

## QVQLVESGGGLVQAGGSLRLTCAASGRTFHGNAMGWYRPAPGKERELVAAISYSGGRTYYADSVKGRFTISRDNAKNTVYLQMNSLKPEDTAVYYCAAWGSSYSFDYWGQGTQVTVSS
  polyreactivity (PSR sort gate): high polyreactivity

## QVQLVESGGGLVQAGGSLRLSCAACGSIFIGNAMGWYRQAPGKERELVAVISKGGGRTYYADSVKGRFTISRDNAKNTVYLKMNSLKPEDTAVYFCNTRNPESGDYWGQGTQVTVSS
  polyreactivity (PSR sort gate): high polyreactivity

## QVQLVESGGGLVQAGGSLRLSCAASGRISPKNAMGWYRQAPGKERELVATIRKIGGRTYYADSVKGRFTISRDNAKYTVYLQMNSLKPEDTAVYYCATDFAPSYYPDRFDYWGQGTQVTVSS
  polyreactivity (PSR sort gate): low polyreactivity

## QVQLVESGGGLVQAGGSLRLSCAASGSIFVGNAMGWYRQAPGKEWELVAAISAGGSTYYADSVKGRFTISRDNAKNTVYLKLNSLKTEDTAVYYCAAYYVRRYSSRPKDDYWGQGTQVTVSS
  polyreactivity (PSR sort gate): low polyreactivity

## QVQLEESGGGLVQAGGSLRLSCAASGSIFVGYALGWYIQAPGKERELVASITTRGGSTHYADYVKGRFTISRDNAKNTVYLQMNSLKPEDTAVYYCAADSLSNGVLQYLPGYDYWGQGTQVTVSS
  polyreactivity (PSR sort gate): low polyreactivity

## QVQLVESGGGLVQAGGSLRLSCDASGIIFGYYAMGWYRQAPGKERELVAGITWRGDITYADSVKGRFTISRDNAKNTVYLQMNSLKPEDTAVYYCAAESSFYRGYGYWGQGTQVTVSS
  polyreactivity (PSR sort gate): high polyreactivity

## QVQLVESGGGLVQAGGSLRLICAASGRTFGSNAMGWYTQAPGKERELVAAIRERGGSTYADSVKGRFTISRDNAKNTVYLQMNCLKQEDTAVYYCNAVYVRSSLYYTGWSTFYYWGQGTQVTVSS
  polyreactivity (PSR sort gate): low polyreactivity

## QVQLVESGGGLVQAGGSLRLSCAASGFTFPVYAMGWYRQATGKVRELVAAISRRGGRTYYADSVKGRFTISRDNAKNTVSLQMNSLKPEDTAVYYCNKGETLYGSVPYDYWGQGTQVTVSS
  polyreactivity (PSR sort gate): high polyreactivity

## QVQLVESGGGLVQAGGSLRLSCAASGNIFAVNAMGWSRQAPGKERELVARIRYSTGRTYYADSVKGRFTISRDNAKNTVYLQMNSLKPEDTAVYYCATDYYTTRVPGGYDYWGHGTQVTVSS
  polyreactivity (PSR sort gate): high polyreactivity

## QFQLVESGGGLDQAGGSLRLSCAASGLIFSTYSMGLYIQARGKETELVAAISGTGSTYYADSVKGRFTISRDNAKNTVYLQMNSLKPEDTAVYYCNADTYYAGRRYDYWGQGTQVTVSS
  polyreactivity (PSR sort gate): low polyreactivity

## QVQLVESGGGLVQAGGSLRLSCAASGITFKRYAMGWYRQAPGKERELVAAITISAGSTYYADSVKGRFTISRDNAKNNVYLQMNSLKPEDTAVYYCAAESYGSWYYYWGQGTQVTVSS
  polyreactivity (PSR sort gate): high polyreactivity

## QVQLVESCGGLDQAGGSLRLSCAASGSMFGYAMGWYRQAPGKERELVASTTYADSVKGRFTISRDNAKNTVYLQMNSLKPEDTAVYDCAADDWYTVEMEYWGQGTLVTVSS
  polyreactivity (PSR sort gate): low polyreactivity

## QVQLVDSGGGLVQAGGSLRLSCAASGRTIHGYAMGWYRQAPGKERELVAAINWRGGSTYYADSVKGRFTISRDNAKNTVYLQMNSLKPEDTAVYYCNKRQYSARVSRSYDYWGQGTQVTVSS
  polyreactivity (PSR sort gate): high polyreactivity

## QVQLVESGGGLVQAGGSLRLSCAASGLSSLRMLWDGRDRRLGKKGSWLPLITSGGDSTNYADSVKGRFTISRDNAKNTVYFQMNSLKPEDTAVYYCAADLDYPYGYLGQGTQVTVSS
  polyreactivity (PSR sort gate): low polyreactivity

## QVQLVESGGCLVQAGGSLRLSCAASGLIFAEYAMGWYRQAPGKERELVARITSGGSTDYADSVKGRFTISRDNAKNTVFLQMNSLKPEDTAVYYCAAAYAYWGQGTQVTVSS
  polyreactivity (PSR sort gate): low polyreactivity

## QVQLVESGGGLVQAGGSLRLSCADSGLTFYDYAMGWYRQAPGKERELVADIDFNGGSTSYADSVKGRFTISRDNAKNTVYLQMNSLKPEDTAVYYCNTRDRGDVVTGLDYWGQGTQVTVSS
  polyreactivity (PSR sort gate): low polyreactivity

## QVQLEESGGGLVQAGGSLRLSCAASGFTFVPYAMGWYRPAPGKETEFVAALFSDGSTYYADSVKGRFTISRDNAKNTVYLQMNSLKPEDTAVYYCAAAGESSRTGHFDYWGQGTQVTVSS
  polyreactivity (PSR sort gate): low polyreactivity

## QVQLVESGGGLVQAGGSLRLSCAASGRISHYNAMGWYRQAPGKERELVAAISSRGGSTYYADSVKGRFTISRDNAKNTVYLQMNSLKPEDTAVYYCADTAGYWGQGTQVTVSS
  polyreactivity (PSR sort gate): high polyreactivity

## QVPLVESGGGLVQAGGSLRLSCAASGRTFPSNMGWYRQAPGKERELVAAISWRGGSTNYADSVKGRFTISRDNAKNTVYLQMNSLKPEDTAVYYCNARYNTQRYRFLVQGDYWGQGTQVTVSS
  polyreactivity (PSR sort gate): high polyreactivity

## QVQLVESGGGLVQAGGSLRLSCAASGRIFVYYAMGWYRQAPGKERELVAAITYSVDSTYYADSVKGRFTISRDNAKNTVYLQKNSLKPEDTAVYYCATDVDWAYGYQYEDWGQGTQVPVSS
  polyreactivity (PSR sort gate): low polyreactivity

## QDQLVESGGGLVQAGGSLRLSCAASGGTFGLNAMGWYRQAPGKERELVADIDGRGGCTYYADSVKGRFTISRDNAQNTVYLQMNSLKPEDTAVYYCAARAPFLSVPTELDYWGQGTQVSVSS
  polyreactivity (PSR sort gate): low polyreactivity

## QVQLVESGGGLVQAGGSLRLSCAASGGTFWYYAMGWDRQAPGKERELVAAINWSGDSTYADSVKGRFTISRDNAKNTVYLQMNSLKPEDTAVYYCNADVWYYRMDYWGQGTQVTVSS
  polyreactivity (PSR sort gate): low polyreactivity
